What was measured:
[1] = molecular target: FcγRIIIa (CD16A) V176 on NK92-GFP-CD16A cells (V variant) (human) (UniProt P08637)
[2] = molecular target: afucosylated agalactosylated (G0) palivizumab glycoform (human); assay: SPR; Biacore T200, 25°C, PBS with 0.05% Tween 20 and 3.4 mM EDTA; palivizumab analogues captured on immobilised Protein A (CM-5); FcγRIIIA injected, single-cycle kinetics, 2.3 nM to 0.56 µM; 1:1 binding model, KD from the ratio of the rate constants; three repeats
[3] = molecular target: afucosylated palivizumab glycoform monogalactosylated at the α3 antenna (G1(3)) (human); assay: as above
[4] = molecular target: afucosylated palivizumab glycoform monogalactosylated at the α6 antenna (G1(6)) (human); assay: as above
[5] = molecular target: digalactosylated afucosylated (G2) palivizumab glycoform (human); assay: as above
[6] = molecular target: FcγRIIIa (CD16A) F176 on NK92-GFP-CD16A cells (F variant) (human) (UniProt P08637); assay: flow cytometry on cells; NK92-GFP-CD16A cells (V or F variant) with 2.5-fold serial dilutions of palivizumab glycoforms in 1% BSA/PBS, 4°C, 30 min; detected with Alexa Fluor 647 anti-human IgG F(ab')2-specific fragment; % GFP+AF647+ cells
[7] = molecular target: commercially available palivizumab (Synagis) (human); assay: SPR; same set-up as the kinetic SPR (palivizumab captured on Protein A, FcγRIIIA injected); value told as steady state binding
Chain of commercially available palivizumab (Synagis) (human) (heavy, as listed by the source, chain 1 of 2): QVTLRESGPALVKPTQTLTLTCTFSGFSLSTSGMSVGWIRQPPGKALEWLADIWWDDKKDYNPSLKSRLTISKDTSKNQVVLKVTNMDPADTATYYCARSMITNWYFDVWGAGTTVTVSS
Chain of commercially available palivizumab (Synagis) (human) (light, as listed by the source, chain 2 of 2): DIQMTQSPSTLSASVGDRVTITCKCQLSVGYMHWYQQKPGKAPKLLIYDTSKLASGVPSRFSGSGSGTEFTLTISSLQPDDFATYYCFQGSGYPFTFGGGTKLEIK

Chain of afucosylated agalactosylated (G0) palivizumab glycoform (human) (heavy, as listed by the source, chain 1 of 2): as the sequence (heavy, as listed by the source, chain 1 of 2) above
Chain of afucosylated agalactosylated (G0) palivizumab glycoform (human) (light, as listed by the source, chain 2 of 2): as the sequence (light, as listed by the source, chain 2 of 2) above
Chain of afucosylated palivizumab glycoform monogalactosylated at the α6 antenna (G1(6)) (human) (heavy, as listed by the source, chain 1 of 2): as the sequence (heavy, as listed by the source, chain 1 of 2) above
Chain of afucosylated palivizumab glycoform monogalactosylated at the α6 antenna (G1(6)) (human) (light, as listed by the source, chain 2 of 2): as the sequence (light, as listed by the source, chain 2 of 2) above
Chain of digalactosylated afucosylated (G2) palivizumab glycoform (human) (heavy, as listed by the source, chain 1 of 2): as the sequence (heavy, as listed by the source, chain 1 of 2) above
Chain of digalactosylated afucosylated (G2) palivizumab glycoform (human) (light, as listed by the source, chain 2 of 2): as the sequence (light, as listed by the source, chain 2 of 2) above
Chain of afucosylated palivizumab glycoform monogalactosylated at the α3 antenna (G1(3)) (human) (heavy, as listed by the source, chain 1 of 2): as the sequence (heavy, as listed by the source, chain 1 of 2) above
Chain of afucosylated palivizumab glycoform monogalactosylated at the α3 antenna (G1(3)) (human) (light, as listed by the source, chain 2 of 2): as the sequence (light, as listed by the source, chain 2 of 2) above

Substance | ADCC reporter assay (Jurkat T-cell luciferase reporter cells, CD16A V variant; RSV-infected Hep2 cells), activity against the G0 glycoform [1] [fold] | Kd [2] [nM] | Kd [3] [nM] | Kd [4] [nM] | Kd [5] [nM] | maximum percent of cells bound [6] [%] | other results
digalactosylated afucosylated (G2) palivizumab glycoform (antibody) | 2 | – | – | – | – | – | –
FcγRIIIA CD16A low binding (F) variant, National Research Council (Canada) (from UniProt P08637 17-254) (receptor) | – | 60 | 60 | 25 to 31 | 25.6 | – | –
afucosylated agalactosylated (G0) palivizumab glycoform (antibody) | – | – | – | – | – | 30 | –
FcγRIIIA CD16A high binding (V) variant, National Research Council (Canada) (from UniProt P08637 17-254) (receptor) | – | 110 | 110 | 6 | 5.9 | – | Kd [7]: 1000 nM
afucosylated palivizumab glycoform monogalactosylated at the α6 antenna (G1(6)) (antibody) | 2 | – | – | – | – | – | –
afucosylated palivizumab glycoform monogalactosylated at the α3 antenna (G1(3)) (antibody) | – | – | – | – | – | 30 | –

Source: publication PMC9596277
